Where two headings read alike, the source gives them in different places.

Test [1] deals with T1, APRIL (Acro Biosystems, Cat: APL-H52D1) (UniProt O75888 115-250, limits assumed).
T1 construct: also called ARPIL; A proliferation-inducing ligand
T1 sequence (looked up): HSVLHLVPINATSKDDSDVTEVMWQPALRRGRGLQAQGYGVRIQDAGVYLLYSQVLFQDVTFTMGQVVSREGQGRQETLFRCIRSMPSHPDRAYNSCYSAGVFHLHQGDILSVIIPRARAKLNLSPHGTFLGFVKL
Briefly: ELISA, APRIL coated, anti-human Fc-HRP, OD450. Here is the method:
(§1) The capabilities of TACI-BCMA fusion proteins (B575701, B575702, B575703, and B575704) to bind to BAFF and APRIL were assessed by ELISA as follows:
(§2) BAFF (PeproTech, Cat: 310-13) or ARPIL (Acro Biosystems, Cat: APL-H52D1) was diluted to 1 μg/mL with PBS, and a 96-well plate (Costar, Cat: 3590) was coated with the dilution overnight at 4° C. The plate was washed with PBST and blocked with Blocking Buffer (PBST containing 1% BSA) at 37° C. for 1 h. The plate was tapped. The test antibodies were diluted with Blocking Buffer. Incubation was performed at 37° C. for 1.5 h. The plate was washed with PBST. An HRP-mouse anti-human Fc antibody (GenScript, Cat: A01854-200) was diluted with Blocking Buffer. Incubation was performed at 37° C. for 40 min. The plate was washed with PBST. 100 μL of TMB substrate solution (Biopanda, Cat: TMB-S-003) was added, and color development was performed at 37° C. for 3 min. 100 μL of ELISA stop solution (Solarbio, Cat: C1058) was added. OD450 was measured.
A general note: An ELISA detects its analyte on a solid surface through an enzyme-linked reagent.

Test [2] deals with T2, BAFF (PeproTech, Cat: 310-13) (UniProt Q9Y275 134-285). Briefly: ELISA, BAFF coated, anti-human Fc-HRP.
The target of test [3] is T2, BAFF (PeproTech, Cat: 310-13). Briefly: ELISA, BAFF coated, anti-human Fc-HRP, OD450. Here is the method:
as §1, §2

The target in test [4] is T3, recombinant human ARPIL (R&D cat: 5860-AP-010/CF) (human, UniProt O75888 105-250, limits assumed).
T3 sequence (looked up): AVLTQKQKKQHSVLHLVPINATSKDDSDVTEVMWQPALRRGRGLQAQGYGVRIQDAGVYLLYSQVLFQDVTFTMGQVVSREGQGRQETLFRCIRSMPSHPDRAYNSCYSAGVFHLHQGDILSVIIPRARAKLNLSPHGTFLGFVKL
Briefly: cell-based or functional assay.

The target in test [5] is T1, APRIL (Acro Biosystems, Cat: APL-H52D1). The test can be described thus: ELISA, APRIL coated, anti-human Fc-HRP, OD450. Here is the method: The capabilities of B613301, B613302, and B613303, which are fusion proteins of anifrolumab and TACI-BCMA, to bind to BAFF and APRIL were assessed by ELISA as follows:
as §2
This is another data set of the same source.

The target in test [6] is recombinant human BAFF (R&D cat: 7537-BF-025/CF) (human, UniProt Q9Y275 134-285, limits assumed). Briefly: cell-based or functional assay.
The target of test [7] is T1, APRIL (Acro Biosystems, Cat: APL-H52D1). The test can be described thus: ELISA, APRIL coated, anti-human Fc-HRP, OD450. Here is the method:
The capabilities of fusion proteins B606401, B637302, B746201, and B805201 to bind to BAFF and APRIL were assessed by ELISA as follows:
as §2, with “plate” for “plate (Costar, Cat: 3590)”
The EC₅₀ value for the capability of B637302 to bind to APRIL decreased to 1/7 to ⅙ of that of telitacicept.
The source holds these as a separate data set.

Chain of recombinant human BAFF (R&D cat: 7537-BF-025/CF) (Q9Y275 134-285 limits assumed): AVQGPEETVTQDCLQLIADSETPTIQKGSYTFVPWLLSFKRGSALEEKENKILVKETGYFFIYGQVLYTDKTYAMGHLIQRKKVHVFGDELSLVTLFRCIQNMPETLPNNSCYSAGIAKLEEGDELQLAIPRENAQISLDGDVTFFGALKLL
T2 sequence (Q9Y275 134-285 limits assumed): as above

B1: B575703 (Fc fusion)
chain: SRVDQEERFPQGLWTGVAMRSCPEEQYWDPLLGTCMSCKTICNHQSQRTCAAFCRSLSCRKEQGKFYDHLLRDCISCASICGQHPKQCAYFCENKLRSPVNLPPELMLQMAGQCSQNEYFDSLLHACIPCQLRCSSNTPPLTCQRYCNASVTNSVKGTNADKTHTCPPCPAPEAEGAPSVFLFPPKPKDTLMISRTPEVTCVVVDVSHEDPEVKFNWYVDGVEVHNAKTKPREEQYNSTYRVVSVLTVLHQDWLNGKEYKCKVSNKALPSSIEKTISKAKGQPREPQVYTLPPSRDELTKNQVSLTCLVKGFYPSDIAVEWESNGQPENNYKTTPPVLDSDGSFFLYSKLTVDKSRWQQGNVFSCSVMHEALHNHYTQKSLSLSPGK
notes: TACI-BCMA fusion protein; also called TACI-T2-BCMA-ECD-Fc
Take B1: the Emax in test [1] came to 2.78 nM; in test [3], 2.43 nM. Besides, the “EC50 relative to that of telitacicept” value in test [2] stood at 0.5 ratio.

B2: B575702 (Fc fusion)
chain: MLQMAGQCSQNEYFDSLLHACIPCQLRCSSNTPPLTCQRYCNASVTNSVKGTNALSCRKEQGKFYDHLLRDCISCASICGQHPKQCAYFCENKLRSPGDKTHTCPPCPAPEAEGAPSVFLFPPKPKDTLMISRTPEVTCVVVDVSHEDPEVKFNWYVDGVEVHNAKTKPREEQYNSTYRVVSVLTVLHQDWLNGKEYKCKVSNKALPSSIEKTISKAKGQPREPQVYTLPPSRDELTKNQVSLTCLVKGFYPSDIAVEWESNGQPENNYKTTPPVLDSDGSFFLYSKLTVDKSRWQQGNVFSCSVMHEALHNHYTQKSLSLSPGK
notes: TACI-BCMA fusion protein; also called BCMA-ECD-TACI-d2-Fc
Take B2: the figures for the Emax in test [1] and in test [3] were 2.64 nM and 2.24 nM, respectively. For the same molecule, the “EC50 relative to that of telitacicept” value in test [2] turned out to be 0.25 ratio.

B3: Telitacicept (RCT-18) (Fc fusion)
chain: SRVDQEERFPQGLWTGVAMRSCPEEQYWDPLLGTCMSCKTICNHQSQRTCAAFCRSLSCRKEQGKFYDHLLRDCISCASICGQHPKQCAYFCENKLRSPVNLPPELDKTHTCPPCPAPEAEGAPSVFLFPPKPKDTLMISRTPEVTCVVVDVSHEDPEVKFNWYVDGVEVHNAKTKPREEQYNSTYRVVSVLTVLHQDWLNGKEYKCKVSNKALPSSIEKTISKAKGQPREPQVYTLPPSRDELTKNQVSLTCLVKGFYPSDIAVEWESNGQPENNYKTTPPVLDSDGSFFLYSKLTVDKSRWQQGNVFSCSVMHEALHNHYTQKSLSLSPGK
notes: Positive control, TACI-Fc
On to B3, for which, in test [4], the “Flow cytometry proliferating B cell proportion (%), mean, APRIL-induced, drug at 4.12 nM” value was 48.1%; the “Flow cytometry proliferating B cell proportion (%), mean, APRIL-induced, drug at 12.35 nM” value worked out at 49.2%; the “Flow cytometry proliferating B cell proportion (%), mean, APRIL-induced, drug at 37.04 nM” value came out at 50.1%; the “Flow cytometry proliferating B cell proportion (%), mean, APRIL-induced, drug at 111.11 nM” value turned out to be 50.3%. Moreover, in test [4], the “Flow cytometry proliferating B cell proportion (%), mean, APRIL-induced, drug at 333.33 nM” value was found to be 49.1% and the “Flow cytometry proliferating B cell proportion (%), mean, APRIL-induced, drug at 1000.00 nM” value was 46.3%. The same molecule displayed an Emax in test [1] of 2.62 nM. The molecule also registered an Emax in test [5] of 2.5 nM. Further, in test [6], the “Flow cytometry proliferating B cell proportion (%), mean, BAFF-induced, drug at 10 nM” value was 36%; the “Flow cytometry proliferating B cell proportion (%), mean, BAFF-induced, drug at 100 nM” value amounted to 30.7%; the “Flow cytometry proliferating B cell proportion (%), mean, BAFF-induced, drug at 1000 nM” value amounted to 24.3%. Also, the Emax in test [7] was 2.98 nM. In addition, the Emax in test [3] came to 2.28 nM.

B4: B575701 (Fc fusion)
chain: LSCRKEQGKFYDHLLRDCISCASICGQHPKQCAYFCENKLRSPGMLQMAGQCSQNEYFDSLLHACIPCQLRCSSNTPPLTCQRYCNASVTNSVKGTNADKTHTCPPCPAPEAEGAPSVFLFPPKPKDTLMISRTPEVTCVVVDVSHEDPEVKFNWYVDGVEVHNAKTKPREEQYNSTYRVVSVLTVLHQDWLNGKEYKCKVSNKALPSSIEKTISKAKGQPREPQVYTLPPSRDELTKNQVSLTCLVKGFYPSDIAVEWESNGQPENNYKTTPPVLDSDGSFFLYSKLTVDKSRWQQGNVFSCSVMHEALHNHYTQKSLSLSPGK
notes: TACI-BCMA fusion protein; also called TACI-d2-BCMA-ECD-Fc
For B4, the Emax in test [1] came out at 2.69 nM; in test [3], 2.31 nM. Further, in test [2], the “EC50 relative to that of telitacicept” value worked out at 0.5 ratio.

B5: B575704 (Fc fusion)
chain: MLQMAGQCSQNEYFDSLLHACIPCQLRCSSNTPPLTCQRYCNASVTNSVKGTNASRVDQEERFPQGLWTGVAMRSCPEEQYWDPLLGTCMSCKTICNHQSQRTCAAFCRSLSCRKEQGKFYDHLLRDCISCASICGQHPKQCAYFCENKLRSPVNLPPELDKTHTCPPCPAPEAEGAPSVFLFPPKPKDTLMISRTPEVTCVVVDVSHEDPEVKFNWYVDGVEVHNAKTKPREEQYNSTYRVVSVLTVLHQDWLNGKEYKCKVSNKALPSSIEKTISKAKGQPREPQVYTLPPSRDELTKNQVSLTCLVKGFYPSDIAVEWESNGQPENNYKTTPPVLDSDGSFFLYSKLTVDKSRWQQGNVFSCSVMHEALHNHYTQKSLSLSPGK
notes: TACI-BCMA fusion protein; also called BCMA-ECD-TACI-T2-Fc
Consider B5, for which the Emax in test [1] was determined as 2.68 nM; in test [3] it was 2.29 nM. The “EC50 relative to that of telitacicept” value in test [2] is 0.25 ratio.
